B1: Cell division control protein 13 (Saccharomyces cerevisiae), P32797 (parent)
chain: MDTLEEPECPPHKNRIFVSSSKDFEGYPSKAIVPVQFVALLTSIHLTETKCLLGFSNFERRGDQSQEDQYLIKLKFKDRGSERLARITISLLCQYFDIELPDLDSDSGASPTVILRDIHLERLCFSSCKALYVSKHGNYTLFLEDIKPLDLVSVISTISTKSTNSSKHSSSELISECDLNNSLVDIFNNLIEMNRDEKNRFKFVKLIHYDIELKKFVQDQQKVLSQKSKAAAINPFFVPNRLGIPYIESQNEFNSQLMTLNVDEPTTDISNMGEEMHDSADPIEDSDSSTTSSTGKYFSSKSYIQSQTPERKTSVPNNWHDDDSGSKRKRKLSFHSPNASSIRKAISYEQLSLASVGSVERLEGKIVGMNPPQFASINEFKYCTLKLYFTQLLPNVPDKVLVPGVNCIEIVIPTRERICELFGVLNCQSDKISDILLLEKPDRISVEVERILWDNDKTASPGMAVWSLKNISTDTQAQAQVQVPAQSSASIDPSRTRMSKMARKDPTIEFCQLGLDTFETKYITMFGMLVSCSFDKPAFISFVFSDFTKNDIVQNYLYDRYLIDYENKLELNEGFKAIMYKNQFETFDSKLRKIFNNGLRDLQNGRDENLSQYGIVCKMNIKVKMYNGKLNAIVRECEPVPHSQISSIASPSQCEHLRLFYQRAFKRIGESAISRYFEEYRRFFPIHRNGSHLAKLRFDEVKHEPKKSPTTPALAEHIPDLNADVSSFDVKFTDISSLLDSSARLPRPQQTHKSNTLYSCEGRIIAIEYHASDLCFHITNELPLLQTRGLAPERVLQLHIITSKNFAYFFNRSSAYLQRQPLEEKYTQLAQFLGHSFKFNITSSLTLFPDTTVALQIWCPIECTFRELQQQLAHPKVAAAPDSGSLDCAINATVNPLRLLAAQNGVTVKKEEDNDDDAGAVPTS
partner: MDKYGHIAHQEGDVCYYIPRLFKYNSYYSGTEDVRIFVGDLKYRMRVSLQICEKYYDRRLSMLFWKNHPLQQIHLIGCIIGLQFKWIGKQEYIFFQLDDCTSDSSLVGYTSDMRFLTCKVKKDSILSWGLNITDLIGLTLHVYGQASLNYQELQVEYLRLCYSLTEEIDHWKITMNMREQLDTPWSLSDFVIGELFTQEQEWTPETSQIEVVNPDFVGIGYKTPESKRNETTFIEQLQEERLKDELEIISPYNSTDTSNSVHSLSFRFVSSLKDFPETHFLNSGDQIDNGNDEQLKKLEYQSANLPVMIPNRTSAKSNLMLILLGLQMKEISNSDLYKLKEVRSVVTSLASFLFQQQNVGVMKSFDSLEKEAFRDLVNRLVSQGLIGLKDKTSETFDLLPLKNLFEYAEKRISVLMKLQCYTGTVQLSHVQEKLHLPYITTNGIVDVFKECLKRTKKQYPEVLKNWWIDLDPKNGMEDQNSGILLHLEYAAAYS

Variants of: B1
Settings: with stn1_yeast STN1, P38960

Variant	effect of a mutation on the interaction
C383S;L401A	disrupting interaction strength
C383A;M463A	disrupting interaction strength

Next, values leading:

effect of a mutation on the interaction	Variant
disrupting interaction strength	P371S;C383S
disrupting interaction strength	C383S;Y388A

Reference: IntAct's records for PubMed 23177925
